Laboratory results from patent US20250388683A1 (VETOQUINOL, published 2025).
Like-named read-outs stand apart in the source and are kept apart here.

Columns and labels:
[1] = molecular target: T1, canine IL-31RA expressed on HEK-Blue STAT3 canine IL-31R reporter cells (with canine OSMR) (canine); experiment: cell-based or functional assay
[2] = molecular target: T1, canine IL-31RA expressed on HEK-Blue …; experiment: cell-based or functional assay; remark: listed apart in the source
[3] = molecular target: T1, canine IL-31RA expressed on HEK-Blue …; experiment: cell-based or functional assay; remark: listed apart in the source
[4] = molecular target: T1, canine IL-31RA expressed on HEK-Blue …; experiment: cell-based or functional assay; remark: listed apart in the source
[5] = molecular target: T1, canine IL-31RA expressed on HEK-Blue …; experiment: cell-based or functional assay; remark: listed apart in the source
[6] = molecular target: T1, canine IL-31RA expressed on HEK-Blue …; experiment: cell-based or functional assay; remark: listed apart in the source
[7] = molecular target: T1, canine IL-31RA expressed on HEK-Blue …; experiment: cell-based or functional assay; remark: listed apart in the source
[8] = molecular target: T1, canine IL-31RA expressed on HEK-Blue …; experiment: cell-based or functional assay; remark: listed apart in the source
[9] = molecular target: T1, canine IL-31RA expressed on HEK-Blue …; experiment: cell-based or functional assay; remark: listed apart in the source
[10] = molecular target: T1, canine IL-31RA expressed on HEK-Blue …; experiment: cell-based or functional assay; remark: listed apart in the source
[11] = molecular target: T1, canine IL-31RA expressed on HEK-Blue …; experiment: cell-based or functional assay; remark: listed apart in the source
[12] = molecular target: T1, canine IL-31RA expressed on HEK-Blue …; experiment: cell-based or functional assay; remark: listed apart in the source
[13] = molecular target: T2, Recombinant extra cellular domain of canine IL-31 receptor A (cECD-IL-31RA), His-tagged (canine); experiment: Octet K2 BLI, cIL-31RA loaded on protein A tips, antibody at 15.6, 3.91, 0.98 nM, 1:1 Langmuir local fit
T2 construct: also called cIL-31RA; cIL31r
T2 chain: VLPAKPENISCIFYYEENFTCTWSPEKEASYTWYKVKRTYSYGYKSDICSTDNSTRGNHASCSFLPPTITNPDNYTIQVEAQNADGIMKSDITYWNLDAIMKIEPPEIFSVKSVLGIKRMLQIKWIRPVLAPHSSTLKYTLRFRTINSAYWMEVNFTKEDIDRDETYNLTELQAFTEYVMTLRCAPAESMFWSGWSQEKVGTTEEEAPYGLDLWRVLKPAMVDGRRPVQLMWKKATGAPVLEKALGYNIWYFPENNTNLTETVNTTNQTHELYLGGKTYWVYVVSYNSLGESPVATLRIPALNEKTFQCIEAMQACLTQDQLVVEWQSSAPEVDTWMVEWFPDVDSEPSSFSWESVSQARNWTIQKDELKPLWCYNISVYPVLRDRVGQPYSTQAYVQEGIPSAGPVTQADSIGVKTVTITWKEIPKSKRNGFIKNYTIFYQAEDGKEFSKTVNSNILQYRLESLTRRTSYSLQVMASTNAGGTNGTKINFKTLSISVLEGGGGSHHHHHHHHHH
Experimental: (§1) Binding of the purified antibodies to cECD-IL-31RA was analyzed using the Octet system (BLI technology, Fortebio). Octet K2 instrument was used to measure the binding kinetics of either canine IL-31RA (cIL-31RA) or human IL31RA (hIL-31RA) to 8DE and 3F1 antibodies. cIL-31RA (see example 1) or hIL31R proteins (Acrobiosystem, Cat:ILA-H5256) were attached to the surface of the protein A (fortéBio, Part No: 18-5013) sensor tip (5 ug/ml, 200 ul, 120 sec). […] Then, the antibodies were allowed to dissociate for 600 seconds. All the dilutions were made in PBS-Tween (0.05%) solution. The measurement was corrected for baseline drift by subtracting a control sensor exposed to running buffer (PBS-Tween, 0.05%) only. Data analysis and curve fitting were carried out using the own software (local fitting, 1:1 Langmuir model) of the device.

[14] = molecular target: T1, canine IL-31RA expressed on HEK-Blue …; experiment: cell-based or functional assay; remark: listed apart in the source
[15] = molecular target: T3, human IL31RA protein (Acrobiosystem, Cat:ILA-H5256) (human, UniProt Q8NI17 20-519, limits assumed); experiment: Octet K2 BLI, receptor loaded on protein A tips, antibody in solution
T3 construct: Bought; loaded on protein A sensor tips; also called hIL-31RA; hIL31R
T3 sequence (looked up): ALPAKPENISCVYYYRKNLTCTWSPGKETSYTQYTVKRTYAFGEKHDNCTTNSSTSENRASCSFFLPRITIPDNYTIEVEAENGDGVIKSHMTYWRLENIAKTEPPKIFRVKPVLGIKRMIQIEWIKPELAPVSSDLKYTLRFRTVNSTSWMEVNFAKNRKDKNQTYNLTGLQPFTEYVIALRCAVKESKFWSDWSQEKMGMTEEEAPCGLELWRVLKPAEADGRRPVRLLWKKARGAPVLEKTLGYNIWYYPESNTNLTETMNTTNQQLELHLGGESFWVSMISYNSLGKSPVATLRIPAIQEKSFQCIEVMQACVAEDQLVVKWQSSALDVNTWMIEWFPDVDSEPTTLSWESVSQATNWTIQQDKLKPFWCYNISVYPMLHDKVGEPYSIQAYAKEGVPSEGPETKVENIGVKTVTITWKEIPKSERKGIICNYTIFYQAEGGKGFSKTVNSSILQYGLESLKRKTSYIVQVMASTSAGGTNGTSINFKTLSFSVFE
Experimental: as §1

| Binder | IC50 (read off the curve); STAT3-SEAP reporter, canine IL-31 stimulation [1] [nM] | IC50 (read off the curve); STAT3-SEAP reporter, canine IL-31 stimulation [2] [nM] | IC50 (read off the curve); STAT3-SEAP reporter, canine IL-31 stimulation [3] [nM] | IC50 ratio (IC50 candidate/IC50 VTQ2101) [4] [ratio] | IC50 (read off the curve); STAT3-SEAP reporter, canine IL-31 stimulation [5] [nM] | IC50 ratio (IC50 candidate/IC50 VTQ2101) [6] [ratio] | Mean IC50 (nM) (n = 3), HEK-Blue cell-based SEAP assay [7] | IC50 ratio (IC50 candidate/IC50 VTQ2101) [8] [ratio] | IC50 (read off the curve); STAT3-SEAP reporter, canine IL-31 stimulation [9] [nM] | IC50 (read off the curve); STAT3-SEAP reporter, canine IL-31 stimulation [10] [nM] | IC50 (read off the curve); STAT3-SEAP reporter, canine IL-31 stimulation [11] [nM] | IC50 (read off the curve); STAT3-SEAP reporter, canine IL-31 stimulation [12] [nM] | Kd [13] [nM] | IC50 (read off the curve); STAT3-SEAP reporter, canine IL-31 stimulation [14] [nM] | binding result [15] |
| --- | --- | --- | --- | --- | --- | --- | --- | --- | --- | --- | --- | --- | --- | --- | --- |
| 8D3-VHL/8D3-VLH caninized antibody (VTQ2101) (antibody, V domains shown) VH: EVTLQESGPGLVKPSQTLSLTCVASGFSIKSSFIHWLRQRPGRGLEWIGRIDPAFGATEYNPAFQGRFSITADTAKNQASLQLSSMTTEDSAVYYCARYHYAASHFDAWGQGTLVTVSS VL: RIVMTQSPGSLAGSVGESVSINCKSSQSVTNDLTWYQQKPGEAPKVLITYASQRYTGVPARFSGSGYGTDFTLTINNLQAEDVGDYFCQQDYASPFTFGQGTKLEIK | ~0.3 | ~0.05 | ~0.6 | 1 | ~1 | 1 | 0.33 | 1 | ~0.6 | ~0.6 | ~0.6 | ~1 | – | – | – |
| 8D3 chimeric canine IgGB antibody (antibody, V domains shown, also called chimeric 8D3) VH: EVQLQQSGAELVKPGASVKLSCTASGFNIKDSFIHWLKQRPEQGLEWIGRIDPANGNTEYDPNFQGKDTITADTSSNTAYLQVSSLTSEDTAVYYCARYYYGNSHFDCWGQGTTLTVSS VL: RIVMNQTPKFLPISAGDRVIITCKASQSVTNDVTWYQQKPGQSPKVLIHYASNRYTGVPDRFTGSGYGTDFTFTISTVQAEDLAVYFCQQDYSSPFTFGSGTKLEIK | – | – | – | – | – | – | 0.43 | – | – | – | – | – | < 0.001 | ~0.5 | no binding |
